Test results taken from the supplement of paper PMC11780869.

Test system: Bacillus subtilis
Test: cleaved RNA product abundance (RNA/gDNA barcode ratio) relative to median wild-type variant (ratio to wild type); higher = more accumulation of the downstream cleavage product
Conditions: cleavage site: cggR-gapA (positions -7 to +36 mutated)
Method: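 MPRA in B. subtilis. Mutagenized RNase Y cleavage-site regions (9% mutation rate) were inserted into a barcoded reporter mRNA (truncated aprE or tetM). Cells were grown in LB at 37°C to OD600 0.3. The cleaved RNA isoform was gel-purified and its barcodes counted; the RNA:gDNA barcode ratio was normalised to the median wild-type variant, and the median over barcodes is reported per variant. The printed sequence is the variable window only; the reporter flanks are not printed.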

[1] = experiment (reporter, strain, medium): exp 2b: truncated aprE reporter, strain BJT200
[2] = experiment (reporter, strain, medium): exp 4a: truncated aprE reporter, strain BJT201 with 2% xylose (RNase J1 expressed)

Row | Sequence | cleaved RNA product abundance [1] | cleaved RNA product abundance [2] | cleaved RNA product abundance (experiment (reporter, strain, medium): exp 6: tetM reporter, strain 168)
1 | ACAGACGAAGGAGCCGCAAACAAGTTATTAAGGGATGAATAATCCCTCAAGATAAATATCTCTCACTTATTTAAA | 0.17 | – | –
2 | ACAGACGAAGGAGCCGCAAACAAGTTATTAAGGGATGAATAATCCCTCAATAAAAATATCTCTCACTTATTTAAA | – | 0.1 | –
3 | ACAGACGAAGGAGCCGCAAACAAGTTATTAAGGGATGAATAATCCCTCAATATAAATAACTCTCACTTATTTAAA | 0.576 | – | –
4 | ACAGACGAAGGAGCCGCAAACAAGTTATTAAGGGATGAATAATCCCTCAATATAAATATCTCTCACTTATTTAAA | 0.78 | 0.738 | 0.707
5 | ACAGACGAAGGAGCCGCAAACAAGTTATTAAGGGATGAATAATCCCTCAATATAAATTTCTCTCACTTATTTAAA | – | 0.298 | –
6 | ACAGACGAAGGAGCCGCAAACAAGTTATTAAGGGATGAATAATCCCTCAATATAACTATCTCTCACTTATTTAAA | – | 0.0791 | –
7 | ACAGACGAAGGAGCCGCAAACAAGTTATTAAGGGATGAATAATCCCTCAATATACATATCTCTCACTTATTTAAA | 0.644 | 0.536 | –
8 | ACAGACGAAGGAGCCGCAAACAAGTTATTAAGGGATGAATAATCCCTCAATATTAATATCTCTCACTTATTTAAA | 0.12 | – | –
9 | ACAGACGAAGGAGCCGCAAACAAGTTATTAAGGGATGAATAATCCCTCATTATAAATATCTCTCACTTATTTAAA | – | 0.337 | –
10 | ACAGACGAAGGAGCCGCAAACAAGTTATTAAGGGATGAATAATCCCTCCATATAAATATCTCTCACTTATTTAAA | – | 0.207 | –
11 | ACAGACGAAGGAGCCGCAAACAAGTTATTAAGGGATGAATAATCCCTCTATATAAATATCTCTCACTTATTTAAA | – | 0.46 | –
12 | ACAGACGAAGGAGCCGCAAACAAGTTATTAAGGGATGAATAATCCCTGAATATAAATATCTCTCACTTATTTAAA | – | 0.455 | –
13 | ACAGACGAAGGAGCCGCAAACAAGTTATTAAGGGATGAATAATCCCTTAATATAAATATCTCTCACTTATTTAAA | – | 0.287 | –
14 | ACAGACGAAGGAGCCGCAAACAAGTTATTAAGGGATGAATAATCCGTCAATATAAATATCTCTCACTTATTTAAA | – | 0.187 | –
15 | ACAGACGAAGGAGCCGCAAACAAGTTATTAAGGGATGAATAATCTCTCAATATAAATATCTCTCACTTATTTAAA | 0.529 | 0.573 | –
16 | ACAGACGAAGGAGCCGCAAACAAGTTATTAAGGGATGAATAATGCCTCAATATAAATATCTCTCACTTATTTAAA | – | 0.0993 | –
17 | ACAGACGAAGGAGCCGCAAACAAGTTATTAAGGGATGAATAATTCCTCAATATAAATATCTCTCACTTATTTAAA | – | 0.422 | –
18 | ACAGACGAAGGAGCCGCAAACAAGTTATTAAGGGATGAATATTCCCTCAATATAAATATCTCTCACTTATTTAAA | – | 0.608 | –
19 | ACAGACGAAGGAGCCGCAAACAAGTTATTAAGGGATGAATTATCCCTCAATATAAATATCTCTCACTTATTTAAA | 0.669 | – | –
20 | ACAGACGAAGGAGCCGCAAACAAGTTATTAAGGGATGACTAATCCCTCAATATAAATATCTCTCACTTATTTAAA | 0.557 | 0.522 | –

Row | Sequence | cleaved RNA product abundance [1] | cleaved RNA product abundance [2] | cleaved RNA product abundance (experiment (reporter, strain, medium): exp 6: tetM reporter, strain 168)
21 | ACAGACGAAGGAGCCGCAAACAAGTTATTAAGGGATGGATAATCCCTCAATATAAATATCTCTCACTTATTTAAA | – | 0.545 | –
22 | ACAGACGAAGGAGCCGCAAACAAGTTATTAAGGGATGTATAATCCCTCAATATAAATATCTCTCACTTATTTAAA | – | 0.478 | –
23 | ACAGACGAAGGAGCCGCAAACAAGTTATTAAGGGATTAATAATCCCTCAATATAAATATCTCTCACTTATTTAAA | 1.02 | 0.656 | –
24 | ACAGACGAAGGAGCCGCAAACAAGTTATTAAGGGCTGAATAATCCCTCAATATAAATATCTCTCACTTATTTAAA | – | 0.471 | –
25 | ACAGACGAAGGAGCCGCAAACAAGTTATTAAGGGTTGAATAATCCCTCAATATAAATATCTCTCACTTATTTAAA | – | 0.183 | –
26 | ACAGACGAAGGAGCCGCAAACAAGTTATTAAGGTATGAATAATCCCTCAATATAAATATCTCTCACTTATTTAAA | 0.102 | 0.0749 | –
27 | ACAGACGAAGGAGCCGCAAACAAGTTATTAAGTGATGAATAATCCCTCAATATAAATATCTCTCACTTATTTAAA | 0.0954 | 0.0967 | –
28 | ACAGACGAAGGAGCCGCAAACAAGTTATTAATGGATGAATAATCCCTCAATATAAATATCTCTCACTTATTTAAA | 0.0836 | 0.112 | –
29 | ACAGACGAAGGAGCCGCAAACAAGTTATTATGGGATGAATAATCCCTCAATATAAATATCTCTCACTTATTTAAA | – | 0.213 | –
30 | ACAGACGAAGGAGCCGCAAACAAGTTATTCAGGGATGAATAATCCCTCAATATAAATATCTCTCACTTATTTAAA | 0.495 | – | –
31 | ACAGACGAAGGAGCCGCAAACAAGTTATTTAGGGATGAATAATCCCTCAATATAAATATCTCTCACTTATTTAAA | – | 0.67 | –
32 | ACAGACGAAGGAGCCGCAAACAAGTTTTTAAGGGATGAATAATCCCTCAATATAAATATCTCTCACTTATTTAAA | 0.289 | 0.304 | –
33 | ACAGACGAAGGAGCCGCAAACAATTTATTAAGAGATGAATAATCCCTCAATATAAATATCTCTCACTTATTTAAA | – | 0.128 | –
34 | ACAGACGAAGGAGCCGCAAACAATTTATTAAGGGATGAATAATCCCTCAATATAAATATCTCTCACTTATTTAAA | – | 0.756 | –
35 | ACAGACGAAGGAGCCGCAAACACGTTATTAAGGGATGAATAATCCCTCAATATAAATATCTCTCACTTATTTAAA | – | 1.21 | –
36 | ACAGACGAAGGAGCCGCAAACTAGTTATTAAGGGATGAATAATCCCTCAATATAAATATCTCTCACTTATTTAAA | – | 0.991 | –
37 | ACAGACGAAGGAGCCGCAAAGAAAATATTAAGGGATGAATAATCCCTCAATATAAATATCTCTCACTTATTTAAA | – | 0.697 | –
38 | ACAGACGAAGGAGCCGCAAAGAAACTATTAAGGGATGAATAATCCCTCAATATAAATATCTCTCACTTATTTAAA | 0.644 | 0.557 | –
39 | ACAGACGAAGGAGCCGCAAAGAAAGTTATTAAGGGATGAATAATCCCTCAATATAAATATCTCTCACTTATTTAA | – | 0.775 | –
40 | ACAGACGAAGGAGCCGCAAAGAAATAATTAAGCGATGAATAATCCCTCAATATAAATATCTCTCACTTATTTAAA | – | 0.166 | –

Row | Sequence | cleaved RNA product abundance [1] | cleaved RNA product abundance [2] | cleaved RNA product abundance (experiment (reporter, strain, medium): exp 6: tetM reporter, strain 168)
41 | ACAGACGAAGGAGCCGCAAAGAAATAATTAAGGGATGAATAATCCCTCAATATAAATATCTCTCACTTATTTAAA | 0.25 | 0.381 | –
42 | ACAGACGAAGGAGCCGCAAAGAAATGATTAAGGGATGAATAATCCCTCAATATAAATATCTCTCACTTATTTAAA | 0.354 | 0.457 | –
43 | ACAGACGAAGGAGCCGCAAAGAAATTAATAAGGGATGAATAATCCCTCAATATAAATATCTCTCACTTATTTAAA | 0.223 | 0.245 | –
44 | ACAGACGAAGGAGCCGCAAAGAAATTACTAAGGGATGAATAATCCCTCAATATAAATATCTCTCACTTATTTAAA | – | 0.247 | –
45 | ACAGACGAAGGAGCCGCAAAGAAATTAGTAAGGGATGAATAATCCCTCAATATAAATATCTCTCACTTATTTAAA | 0.339 | 0.34 | –
46 | ACAGACGAAGGAGCCGCAAAGAAATTATAAAGGGATGAATAATCCCTCAATATAAATATCTCTCACTTATTTAAA | 0.215 | 0.342 | –
47 | ACAGACGAAGGAGCCGCAAAGAAATTATCAAGGGATGAATAATCCCTCAATATAAATATCTCTCACTTATTTAAA | – | 0.475 | –
48 | ACAGACGAAGGAGCCGCAAAGAAATTATGAAGGGATGAATAATCCCTCAATATAAATATCTCTCACTTATTTAAA | – | 0.386 | –
49 | ACAGACGAAGGAGCCGCAAAGAAATTATTAAAAGATGAATAATCCCTCAATATAAATATCTCTCACTTATTTAAA | – | 0.083 | –
50 | ACAGACGAAGGAGCCGCAAAGAAATTATTAAAGGATGAATAATCCCTCAATATAAATATCTCTCACTTATTTAAA | 0.144 | 0.221 | –
51 | ACAGACGAAGGAGCCGCAAAGAAATTATTAAAGGATTAATAATCCCTCAATATAAATATCTCTCACTTATTTAAA | – | 0.142 | –
52 | ACAGACGAAGGAGCCGCAAAGAAATTATTAACGGATGAATAATCCCTCAATATAAATATCTCTCACTTATTTAAA | 0.142 | 0.168 | –
53 | ACAGACGAAGGAGCCGCAAAGAAATTATTAAGAGATGAATAATCCCTCAAAATAAATATCTCTCACTTATTTAAA | 0.114 | – | –
54 | ACAGACGAAGGAGCCGCAAAGAAATTATTAAGAGATGAATAATCCCTCAATATAAATATCTCTCACTTATTTAAA | 0.121 | 0.112 | –
55 | ACAGACGAAGGAGCCGCAAAGAAATTATTAAGAGATGAATAATCCCTCTATATAAATATCTCTCACTTATTTAAA | – | 0.117 | –
56 | ACAGACGAAGGAGCCGCAAAGAAATTATTAAGAGATGAATTATCCCTCAATATAAATATCTCTCACTTATTTAAA | – | 0.121 | –
57 | ACAGACGAAGGAGCCGCAAAGAAATTATTAAGCGATGAATAATCACTCAATATAAATATCTCTCACTTATTTAAA | – | 0.184 | –
58 | ACAGACGAAGGAGCCGCAAAGAAATTATTAAGCGATGAATAATCCCTCAATATAAATATCTCTCACTTATTTAAA | 0.096 | 0.121 | –
